In patent publication US20090304686A1, “INTERFERING IN ACTIVATION OF AN IMMUNE CELL BY INFLUENCING INTERACTION OF LAIR AND COLLAGEN” (UNIVERSOTAIR MEDISCH CENTRUM UTRECHT, priority 2006, published 2009):
Values belong to the substance of their own block, whether it stands above or below them.

How the values were obtained:
[1] = biological target: collagen I (purified, Sigma; acid-soluble human collagen type I in BIAcore) (human) (UniProt P02452)
[2] = biological target: collagen III (purified, Sigma; acid-soluble human collagen type III in BIAcore) (human) (UniProt P02461)
[3] = biological target: collagen I (purified, Sigma; acid-soluble human collagen type I in BIAcore) (human) (UniProt P02452); assay: BIAcore, equilibrium binding to immobilized human collagen I
[4] = biological target: collagen III (purified, Sigma; acid-soluble human collagen type III in BIAcore) (human) (UniProt P02461); assay: BIAcore, equilibrium binding to immobilized human collagen III
[5] = biological target: collagen I (purified, Sigma; acid-soluble human collagen type I in BIAcore) (human) (UniProt P02452); assay: SPR (BIAcore), equilibrium binding to immobilised collagen I
[6] = biological target: collagen III (purified, Sigma; acid-soluble human collagen type III in BIAcore) (human) (UniProt P02461); assay: SPR (BIAcore), equilibrium binding to immobilised collagen III
[7] = biological target: collagen I (purified, Sigma; acid-soluble human collagen type I in BIAcore) (human) (UniProt P02452); assay: SPR (BIAcore), biphasic dissociation from collagen I, component Koff1
[8] = biological target: collagen I (purified, Sigma; acid-soluble human collagen type I in BIAcore) (human) (UniProt P02452); assay: SPR (BIAcore), biphasic dissociation from collagen I, component Koff2
[9] = biological target: collagen III (purified, Sigma; acid-soluble human collagen type III in BIAcore) (human) (UniProt P02461); assay: SPR (BIAcore), biphasic dissociation from collagen III, component Koff1
[10] = biological target: collagen III (purified, Sigma; acid-soluble human collagen type III in BIAcore) (human) (UniProt P02461); assay: SPR (BIAcore), biphasic dissociation from collagen III, component Koff2
[11] = biological target: hLAIR-1-CD3ζ chimera on 2B4 NFAT-GFP reporter cells (human) (UniProt Q6GTX8)
[12] = biological target: hLAIR-1-CD3ζ chimera on 2B4 NFAT-GFP reporter cells (human) (UniProt Q6GTX8); remark: listed apart in the source

collagen III (purified, Sigma; acid-soluble human collagen type III in BIAcore) (human), sequence (P02461 154-1221): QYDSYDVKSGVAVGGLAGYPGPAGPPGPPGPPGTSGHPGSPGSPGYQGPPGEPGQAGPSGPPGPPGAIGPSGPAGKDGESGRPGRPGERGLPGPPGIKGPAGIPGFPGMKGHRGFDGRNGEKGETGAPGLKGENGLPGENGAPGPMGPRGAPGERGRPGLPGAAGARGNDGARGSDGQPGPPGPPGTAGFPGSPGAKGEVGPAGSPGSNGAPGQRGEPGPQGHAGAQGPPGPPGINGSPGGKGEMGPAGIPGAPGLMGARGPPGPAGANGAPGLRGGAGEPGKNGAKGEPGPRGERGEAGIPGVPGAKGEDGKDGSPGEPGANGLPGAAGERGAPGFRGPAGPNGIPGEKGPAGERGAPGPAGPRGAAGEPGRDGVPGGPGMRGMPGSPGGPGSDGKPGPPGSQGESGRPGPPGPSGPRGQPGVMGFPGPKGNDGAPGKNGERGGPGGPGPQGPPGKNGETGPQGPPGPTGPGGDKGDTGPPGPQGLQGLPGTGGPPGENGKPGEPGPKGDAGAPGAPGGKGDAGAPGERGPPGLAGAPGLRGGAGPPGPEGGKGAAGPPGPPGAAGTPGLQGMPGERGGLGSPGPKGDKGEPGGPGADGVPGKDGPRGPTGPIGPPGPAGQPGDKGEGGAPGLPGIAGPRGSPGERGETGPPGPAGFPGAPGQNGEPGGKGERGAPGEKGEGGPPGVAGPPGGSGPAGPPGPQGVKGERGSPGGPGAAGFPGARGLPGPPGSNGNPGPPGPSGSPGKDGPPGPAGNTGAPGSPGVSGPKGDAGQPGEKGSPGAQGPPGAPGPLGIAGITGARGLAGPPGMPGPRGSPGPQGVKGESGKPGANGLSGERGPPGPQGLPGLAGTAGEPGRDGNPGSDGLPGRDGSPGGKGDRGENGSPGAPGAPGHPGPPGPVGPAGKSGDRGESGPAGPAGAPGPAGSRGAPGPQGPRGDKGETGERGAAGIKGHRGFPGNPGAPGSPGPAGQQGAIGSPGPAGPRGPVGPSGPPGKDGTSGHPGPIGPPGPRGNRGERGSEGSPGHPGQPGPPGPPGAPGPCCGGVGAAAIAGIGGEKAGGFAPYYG
hLAIR-1-CD3ζ chimera on 2B4 NFAT-GFP reporter cells (human), sequence (Q6GTX8 22-165, change not shown): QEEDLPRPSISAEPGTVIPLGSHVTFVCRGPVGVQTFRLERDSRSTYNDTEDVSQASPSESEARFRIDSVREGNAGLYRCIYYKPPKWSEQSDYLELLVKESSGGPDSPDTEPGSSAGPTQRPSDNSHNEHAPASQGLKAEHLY

percentage of GFP-positive hLAIR-1-CD3ζ reporter cells on Collagen I pre-incubated with Control IgG (55.0 without block) [1]: 50.3%
percentage of GFP-positive hLAIR-1-CD3ζ reporter cells on Collagen III pre-incubated with Control IgG (45.3 without block) [2]: 42.8%
Substance: Control IgG (Fc fusion)

percentage of GFP-positive hLAIR-1-CD3ζ reporter cells on Collagen I pre-incubated with LAIR-2-IgG (55.0 without block) [1]: 0.5%
percentage of GFP-positive hLAIR-1-CD3ζ reporter cells on Collagen III pre-incubated with LAIR-2-IgG (45.3 without block) [2]: 8.4%
Kd [3]: 0.0346 µM
Kd [4]: 0.0414 µM
Bmax (mol/mol Col I) [5]: 10.4
Bmax (mol/mol Col III) [6]: 10.7
koff [7]: 0.00083 s⁻¹
koff [8]: 0.0073 s⁻¹
koff [9]: 0.0005 s⁻¹
koff [10]: 0.0046 s⁻¹
Substance: LAIR-2-IgG (human LAIR-2 fused to the Fc region of human IgG1) (from UniProt Q6ISS4 22-152) (Fc fusion)

percentage of GFP-positive reporter cells on coated Col I (parental cells 0.3) [11]: 33.8%
percentage of GFP-positive reporter cells on Collagen I without block (parental cells 0.2) [12]: 55%
Substance: collagen I (purified, Sigma; acid-soluble human collagen type I in BIAcore) (from UniProt P02452 162-1218; P08123 80-1119) (ligand)
